Source: PMC10373542 (Journal of Virology, 2023)

B1: ION-300 monoclonal antibody (antibody, V domains shown)
VH: QVQLVQSGAEVKKPGESLKISCKGSGYSFTSYWIGWVRQMPGKGLEWMGIIYPGDSDTRYSPSFQGQVTISADKSISTAYLQWSSLKASDTAMYYCARHPSPYYYGSGSYSGGFDYWGQGTLVTVSS
VL: DIVMTQSPGTLSLSPGERATLSCRASQSVSSSYLAWYQQKPGQAPRLLIYGASTRATGIPARFSGSGSGTEFTLTISSLQSEDFAVYYCQQYDNWPLMHTFGQGTKLEIK
B2: WRAIR-2134 monoclonal antibody (antibody, V domains shown)
VH: EVQLVESGGGVVQPGRSLRLSCAASGFIFSSYGMYWVRQAPGKGLEWVAVIWYDGSNKYYADSVKGRFTISRDNSKNTLYLQMNSLRAEDTAVYYCARDLSSSSGWDDYYYYYGMDVWGQGTTVTVSS
VL: not shown
B3: N-612-056 monoclonal antibody (antibody, V domains shown)
VH: not shown
VL: DIQMTQSPSSLSASVGDRVTITCQASQDISNYLNWYQQKPGKAPKLLIYDASNLETGVPSRFSGSGSGTDFTFTISSLQPEDIATYYCQQDAGTPLTFGQGTKVEIK
B4: 6D6 monoclonal antibody (antibody, V domains shown)
VH: EVQLQQSGAELVKPGASVKLSCTTSGFNIIDTYMHWVKQRPEEGLEWIGGIDPVNGNSEYDPKFQDKATITADTSSNTAYLHLSRLTSEDTAVYYCASAHYYGSSSSFPYWGQGTDLVTVS
VL: DIVMTQSQKFMSTSVGDRVSVTCKASQNVGTHVAWYQQKPGQSPKALIYSASYRYSGVPDRFTGSGVGTDFTLTITNVQSEDLAEYFCQQYNSYFTFGSGTKLEIK
B5: FD20 monoclonal antibody (antibody, V domains shown)
VH: QVQLQQSGAEVKKPGSSVKVSCKASGGTFSSYAFSWVRQAPGQGLEWMGRIIPILGIANYAQKFQGRVTITADISTSTAYMALSSLRSEDTAVYYCAKVEVNIGMDDYYYYYGMDVWGQGTTVTVSS
VL: not shown
B6: COVOX-45 monoclonal antibody (antibody, V domains shown)
VH: QVQLVESGGGVVQPGRSLRLSCAASGFTFSTYAMHWVRQAPGKGLEWVAVLSYDGSNKYYADSVKGRFTISRDNSKNTLYLQMNSLRAEDTAVYYCAKGGSYAYYYYMDVWGKGTTVTVSS
VL: not shown
B7: X17 monoclonal antibody (antibody, V domains shown)
VH: QVQLQQSGAELARPGASVKLSCKASGYTFTFYWMQWLKQRPGQGLEWIGAIYPGDGDTRYTQRFKDKATLTADKSSSTAYIQLSSLASEDSAVYYCAGGEYDNYGFDYWGQGTTLTVSS
VL: DIQMTQTTSSLSASLGDRVTISCRASQDISNYLNWYQQKPDGTVKLLIYYTSRLHSGVPSRFSGSGSGTDYSLTISNLEQEDIATYFCQQGTTLPYTFGGGTKLEIK
B8: 7D6 monoclonal antibody (antibody, V domains shown)
VH: EVQLQQSGAELVRPGASVKLSCTASGFNIKDTYIHWVKQRPEQGLEWIGRIDPGDGDTEYDPSFQGKATITADTSSNTAYLELSSLTSEDTAVYYCTRFYDYVDYGMDYWGQGTSVTVSS
VL: DIQMTQSPASLSASVGETVTITCRASGNIHNYLAWYQQKQGKSPQLLVYNAKTLADGVPSRFSGSGSGTQYSLKINSLQPEDFGSYYCQHFWSTPPWTFGGGTKLEVK
B9: WRAIR-2057 monoclonal antibody (antibody, V domains shown)
VH: EVQLVQSGAEVKKPGESLKISCKGSGYSFISYWIAWVRQMPGKGLEWMGIIYPGDSDTTYSPSFQGQVTISADKSISTAYLQWSSLKASDTAIYYCARLLYYSDSSPLDSWGQGTLVTVSS
VL: DIQMTQSPSSLSASVGDRVTITCRASQSISTYLNWYQQKPGKAPNLLIYAASSLQSGVPSRFSGSGSGTDFTLTISSLQPEDFATYYCQQSHSTPRTFGPGTKVDIK
B10: S2H97 monoclonal antibody (antibody, V domains shown)
VH: QVRLVQSGAEVKKSGESLKISCKGSGYSFTSYWIGWVRQMPGKGLEWMGIIYPGDSDTRYSPSFQGQVTISADKSISTVYLQWSSLKASDTAMYYCARQWSHYTYDYYYWGQGTLVTISS
VL: QSVLTQPASVSGSPGQSITISCTGISSDVGGYNSVSWYQQHPGKAPKLMIYDVTNRPSGVSNRFSGSKSGNTASLTISGLQAEDEADYYCSSYTSSSTPPYVFGTGTKVSVL
B11: Walter Reed Army Institute of Research 2063 (WRAIR-2063) monoclonal antibody, human IgG1 (antibody, V domains shown)
VH: EVQLVESGGGVVQPGRSLRLSCAASGFTFSSYGMHWVRQAPGKGLEWVAVIWYDGSNKYYADSVKGRFTISRDNSKNTLYLQMNSLRAEDTAVYYCARGPLGSNYFNYDAFDIWGQGTMVTVSS
VL: DVVMTQSPLSLPVTLGQPASISCRSSQSLEYSDGNTYLNWFQQRPGQSPRRLIYKVSKRDSGVPDRFSGSGSGSDFTLKISRVEAEDVGVYYCMQGTHWPLTFGGGTKVEIK

What follows are binders tested against T1, SARS-CoV-2 WA-1 spike receptor binding domain (RBD) (SARS-CoV-2 WA-1 (S identical to …, UniProt P0DTC2)) (assay: BLI).

Binder | fold higher rate of dissociation (koff) than with WRAIR-2063 [fold]
B1 | ~10
B2 | ~10
B3 | ~10
B4 | ~10
B5 | ~10
B6 | ~10
B7 | ~10
B8 | ~10
B9 | ~10

Each binder was assayed against T1, SARS-CoV-2 WA-1 spike receptor binding … (assay: cell-based or functional assay).

Binder | IC50 of neutralization of WA-1 pseudotyped virus on HEK293 cells expressing ACE2 [mg/L]
B1 | 0.99
B2 | 18.6
B3 | 4.47
B10 | 0.31
B4 | 1.37
B5 | 0.6
B11 | 0.45
B6 | 0.32
B7 | 2.27
B8 | 0.33
B9 | 1.85

Molecular target: T1, SARS-CoV-2 WA-1 spike receptor binding …
Test: BLI
Remark: another data set of the same source

Binder | Kd [nM]
B1 | 3.65
B2 | 4.26
B3 | 6.31
B10 | 0.9
B4 | 3.62
B5 | 3.07
B6 | 4.43
B7 | 4.72
B8 | 3.41
B9 | 6.3
